{
  "source": "the RNAGym collection of RNA variant scans (doi:10.1021/acssynbio.7b00057)",
  "parents": {"B1": {"name": "Pistol ribozyme (parent)", "chain": "GGGUCGUUGUUCCAUAAUCGCGUGGAUAUGGCACGCAAGUUUCUACCGGGCACCGUAAAUGUCCGACUGGAGCCGUUCGGGCGGCUAUAAACAGACCUCAGGCCCGAAGCGUGGCGGCACCUGCCGCCGGUGGUAAAAAAGAUCGGAAGAGCACACGUCU"}},
  "data": [
    {"variants_of": "B1", "test": "aptazyme ON/OFF ratio, guanine; higher = stronger switching; co-transcriptional cleavage with and without guanine", "values": [
      {"variant": "U7G U8G G9U U10C U11C C12U", "aptazyme ON/OFF ratio": 1.53},
      {"variant": "U7G U8G G9U U10C U11A C12G", "aptazyme ON/OFF ratio": 1.25},
      {"variant": "U7G U8G G9U U10C U11A C12A", "aptazyme ON/OFF ratio": 1.28},
      {"variant": "U7G U8G G9U U10C U11A C12U", "aptazyme ON/OFF ratio": 1.28},
      {"variant": "U7G U8G G9U U10G U11A", "aptazyme ON/OFF ratio": 1.4},
      {"variant": "U7G U8G G9U U10C U11G C12A C13A", "aptazyme ON/OFF ratio": 1.12},
      {"variant": "U7G U8G G9U U10C U11G C12A C13U", "aptazyme ON/OFF ratio": 1.28},
      {"variant": "U7G U8G G9U U10C U11G C12A C13G", "aptazyme ON/OFF ratio": 1.15},
      {"variant": "U7G U8G G9C U10C U11C", "aptazyme ON/OFF ratio": 1.22},
      {"variant": "U7G U8G G9C U10C U11A", "aptazyme ON/OFF ratio": 1.64},
      {"variant": "U7G U8G G9C U10C U11G", "aptazyme ON/OFF ratio": 1.35},
      {"variant": "U7G U8G G9C U11G C12U C13A", "aptazyme ON/OFF ratio": 1.3},
      {"variant": "U7G U8G G9C U11G C12U C13G", "aptazyme ON/OFF ratio": 1.05},
      {"variant": "U7G U8G G9C U11G C12U C13U", "aptazyme ON/OFF ratio": 1.26},
      {"variant": "U7G U8G G9C U11A C12G C13U", "aptazyme ON/OFF ratio": 1.2},
      {"variant": "U7G U8G G9C U11A C12G C13A", "aptazyme ON/OFF ratio": 1.12},
      {"variant": "U7G U8G G9C U11A C12G C13G", "aptazyme ON/OFF ratio": 1.07},
      {"variant": "U7G U8G G9C U10G U11A C13U", "aptazyme ON/OFF ratio": 1.12},
      {"variant": "U7G U8G G9C U10G U11A C13G", "aptazyme ON/OFF ratio": 1.05},
      {"variant": "U7G U8G G9C U10G U11A C13A", "aptazyme ON/OFF ratio": 1.1},
      {"variant": "U7G U8G G9U U10C C13U", "aptazyme ON/OFF ratio": 1.28},
      {"variant": "U7G U8G G9U U10C C13G", "aptazyme ON/OFF ratio": 1.31},
      {"variant": "U7G U8G G9U U10C C13A", "aptazyme ON/OFF ratio": 1.43},
      {"variant": "U7G U8G G9U U10C U11A C12A C13U", "aptazyme ON/OFF ratio": 1.33},
      {"variant": "U7G U8G G9U U10C U11A C12A C13A", "aptazyme ON/OFF ratio": 1.3},
      {"variant": "U7G U8G G9U U10C U11A C12A C13G", "aptazyme ON/OFF ratio": 1.24},
      {"variant": "U7G U8G G9U U10C U11C C12G C13G", "aptazyme ON/OFF ratio": 1.12},
      {"variant": "U7G U8G G9U U10C U11C C12G C13A", "aptazyme ON/OFF ratio": 1.19},
      {"variant": "U7G U8G G9U U10C U11C C12G C13U", "aptazyme ON/OFF ratio": 1.33},
      {"variant": "U7G U8G G9C U10C U11G C12G", "aptazyme ON/OFF ratio": 1.23},
      {"variant": "U7G U8G G9C U10C U11G C12U", "aptazyme ON/OFF ratio": 1.37},
      {"variant": "U7G U8G G9C U10C U11G C12A", "aptazyme ON/OFF ratio": 1.22},
      {"variant": "U7G U8G G9C U11G C12G C13U", "aptazyme ON/OFF ratio": 1.18},
      {"variant": "U7G U8G G9C U11G C12G C13G", "aptazyme ON/OFF ratio": 1.24},
      {"variant": "U7G U8G G9C U11G C12G C13A", "aptazyme ON/OFF ratio": 1.17},
      {"variant": "U7G U8G G9C U10G U11C C12A", "aptazyme ON/OFF ratio": 1.25},
      {"variant": "U7G U8G G9C U10G U11C C12G", "aptazyme ON/OFF ratio": 1.18},
      {"variant": "U7G U8G G9C U10G U11C C12U", "aptazyme ON/OFF ratio": 1.04},
      {"variant": "U7G U8G G9U U10A U11C C12G", "aptazyme ON/OFF ratio": 1.19},
      {"variant": "U7G U8G G9U U10A U11C C12A", "aptazyme ON/OFF ratio": 1.32},
      {"variant": "U7G U8G G9U U10A U11C C12U", "aptazyme ON/OFF ratio": 1.22},
      {"variant": "U7G U8G G9C U10G U11G C12A C13A", "aptazyme ON/OFF ratio": 1.09},
      {"variant": "U7G U8G G9C U10G U11G C12A C13U", "aptazyme ON/OFF ratio": 1.09},
      {"variant": "U7G U8G G9C U10G U11G C12A C13G", "aptazyme ON/OFF ratio": 1.15},
      {"variant": "U7G U8G G9C U10C U11C C13U", "aptazyme ON/OFF ratio": 1.07},
      {"variant": "U7G U8G G9C U10C U11C C13A", "aptazyme ON/OFF ratio": 1.09},
      {"variant": "U7G U8G G9C U10C U11C C13G", "aptazyme ON/OFF ratio": 1.04},
      {"variant": "U7G U8G G9U U10A C12A C13G", "aptazyme ON/OFF ratio": 1.14},
      {"variant": "U7G U8G G9U U10A C12A C13A", "aptazyme ON/OFF ratio": 1.21},
      {"variant": "U7G U8G G9U U10A C12A C13U", "aptazyme ON/OFF ratio": 1.15},
      {"variant": "U7G U8G G9C U10C C12A C13U", "aptazyme ON/OFF ratio": 1.25},
      {"variant": "U7G U8G G9U U10C C12G C13G", "aptazyme ON/OFF ratio": 1.1},
      {"variant": "U7G U8G G9U U10C C12G C13U", "aptazyme ON/OFF ratio": 1.25},
      {"variant": "U7G U8G G9U U10C C12G C13A", "aptazyme ON/OFF ratio": 1.24},
      {"variant": "U7G U8G G9U U10C C12A C13G", "aptazyme ON/OFF ratio": 1.29},
      {"variant": "U7G U8G G9U U10C C12A C13U", "aptazyme ON/OFF ratio": 1.4},
      {"variant": "U7G U8G G9U U10C C12A C13A", "aptazyme ON/OFF ratio": 1.31},
      {"variant": "U7G U8G G9C U10C C13G", "aptazyme ON/OFF ratio": 1.15},
      {"variant": "U7G U8G G9C U10C C13U", "aptazyme ON/OFF ratio": 1.59},
      {"variant": "U7G U8G G9C U10C C13A", "aptazyme ON/OFF ratio": 1.44},
      {"variant": "U7G U8G G9C U11C C12A C13G", "aptazyme ON/OFF ratio": 1.13},
      {"variant": "U7G U8G G9C U11C C12A C13U", "aptazyme ON/OFF ratio": 4.45},
      {"variant": "U7G U8G G9C U11C C12A C13A", "aptazyme ON/OFF ratio": 1.37},
      {"variant": "U7G U8G G9U U10A U11G C12G C13G", "aptazyme ON/OFF ratio": 1.06},
      {"variant": "U7G U8G G9U U10A U11G C12G C13A", "aptazyme ON/OFF ratio": 1.13},
      {"variant": "U7G U8G G9U U10A U11G C12G C13U", "aptazyme ON/OFF ratio": 1.05},
      {"variant": "U7G U8G G9C U10G C12G C13G", "aptazyme ON/OFF ratio": 1.12},
      {"variant": "U7G U8G G9C U10G C12G C13U", "aptazyme ON/OFF ratio": 1.2},
      {"variant": "U7G U8G G9C U10G C12G C13A", "aptazyme ON/OFF ratio": 1.11},
      {"variant": "U7G U8G G9C U10G U11C C12A C13G", "aptazyme ON/OFF ratio": 1.05},
      {"variant": "U7G U8G G9C U10G U11C C12A C13A", "aptazyme ON/OFF ratio": 1.1},
      {"variant": "U7G U8G G9C U10G U11C C12A C13U", "aptazyme ON/OFF ratio": 1.12},
      {"variant": "U7G U8G G9C U10C U11C C12A C13A", "aptazyme ON/OFF ratio": 1.05},
      {"variant": "U7G U8G G9C U10C U11C C12A C13G", "aptazyme ON/OFF ratio": 1.14},
      {"variant": "U7G U8G G9C U10C U11C C12A C13U", "aptazyme ON/OFF ratio": 1.1},
      {"variant": "U7G U8G G9U U10C C12G", "aptazyme ON/OFF ratio": 1.22},
      {"variant": "U7G U8G G9U U10C C12U", "aptazyme ON/OFF ratio": 1.28},
      {"variant": "U7G U8G G9U U10C C12A", "aptazyme ON/OFF ratio": 1.38},
      {"variant": "U7G U8G G9U U10A U11G C12U", "aptazyme ON/OFF ratio": 1.07},
      {"variant": "U7G U8G G9U U10A U11G C12G", "aptazyme ON/OFF ratio": 1.08},
      {"variant": "U7G U8G G9U U10A U11G C12A", "aptazyme ON/OFF ratio": 1.03},
      {"variant": "U7G U8G G9C U10C U11A C13A", "aptazyme ON/OFF ratio": 1.21},
      {"variant": "U7G U8G G9C U10C U11A C13U", "aptazyme ON/OFF ratio": 1.41},
      {"variant": "U7G U8G G9C U10C U11A C13G", "aptazyme ON/OFF ratio": 1.17}
    ]}
  ]
}
